Experimental data reported in patent US20090138978A1 (GENERAL HOSPITAL, published 2009).
Where a chain is given by its changes, count along the chain named. In names and notes the source's numbering stands. Blank lines part the entries; values can stand above or below the molecule they belong to.

Assays:
[1] = target: human PDX-1/IPF-1 mutant P63fsdelC, [35S]-radiolabeled in vitro translated (human) (UniProt P52945); assay: GST pull-down with [35S]-labelled human PDX-1 proteins; reference is wild-type human PDX-1
[2] = target: p300 (full-length histone acetyltransferase and nuclear receptor coactivator) (UniProt Q09472); assay: cell-based or functional assay
[3] = target: Gal4-PDX-1 (Gal4 fusion protein of PDX-1) (UniProt P04386); assay: cell-based or functional assay
[4] = target: T1, LexA-rat PDX-1 bait fusion protein (PDX-1 amino acids 160-283) (rat, UniProt P52947 160-283); assay: yeast two-hybrid interaction trap; - means no growth on leucine dropout plates and white colonies on X-gal plates
T1 construct: range 160-283; also called carboxy-terminal PDX-1 protein fragment; not shown: LexA moiety encoded by the yeast bait vector pEG202

GST-p300 (1572-2370) = target: T2, GST-p300 (1572-2370) (UniProt Q09472 1572-2370); assay: GST pull-down with [35S]-labelled in vitro translated Bridge-1
T2 construct: also called carboxy-terminal segment of p300; not shown: glutathione S-transferase
T2 sequence (looked up): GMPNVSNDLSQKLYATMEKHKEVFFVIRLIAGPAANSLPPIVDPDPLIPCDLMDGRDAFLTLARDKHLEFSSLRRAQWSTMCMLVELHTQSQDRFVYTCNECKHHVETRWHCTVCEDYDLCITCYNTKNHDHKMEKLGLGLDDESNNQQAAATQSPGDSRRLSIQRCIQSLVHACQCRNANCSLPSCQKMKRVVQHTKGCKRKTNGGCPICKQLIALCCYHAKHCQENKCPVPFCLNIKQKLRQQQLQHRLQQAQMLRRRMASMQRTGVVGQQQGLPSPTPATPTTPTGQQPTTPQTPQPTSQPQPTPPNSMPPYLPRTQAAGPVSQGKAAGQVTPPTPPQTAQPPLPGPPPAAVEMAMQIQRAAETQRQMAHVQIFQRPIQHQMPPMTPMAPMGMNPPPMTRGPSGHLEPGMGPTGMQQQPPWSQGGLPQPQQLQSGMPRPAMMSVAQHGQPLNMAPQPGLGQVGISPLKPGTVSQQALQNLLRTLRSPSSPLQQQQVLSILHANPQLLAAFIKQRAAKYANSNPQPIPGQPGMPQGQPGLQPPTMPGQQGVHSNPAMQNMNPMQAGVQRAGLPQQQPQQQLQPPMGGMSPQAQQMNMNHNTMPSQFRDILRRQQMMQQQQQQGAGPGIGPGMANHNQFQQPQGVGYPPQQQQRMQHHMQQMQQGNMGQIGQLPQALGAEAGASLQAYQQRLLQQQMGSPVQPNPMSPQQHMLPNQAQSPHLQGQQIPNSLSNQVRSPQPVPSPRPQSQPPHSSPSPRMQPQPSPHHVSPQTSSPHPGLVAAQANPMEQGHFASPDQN

[5] = target: T3, p300 (full-length histone acetyltransferase and nuclear receptor coactivator) (UniProt Q09472 2-2414, limits assumed, [35S]-methionine labelled in the pull-down assays); assay: GST pull-down with [35S]-labelled in vitro translated p300
T3 construct: mature; In vitro translated in rabbit reticulocyte lysate for the pull-downs; Expressed from pCMV-p300 in BHK cells for the reporter assay; also called [35S]-p300; radiolabeled in vitro translated full-length p300
T3 sequence (Q09472 2-2414 limits assumed): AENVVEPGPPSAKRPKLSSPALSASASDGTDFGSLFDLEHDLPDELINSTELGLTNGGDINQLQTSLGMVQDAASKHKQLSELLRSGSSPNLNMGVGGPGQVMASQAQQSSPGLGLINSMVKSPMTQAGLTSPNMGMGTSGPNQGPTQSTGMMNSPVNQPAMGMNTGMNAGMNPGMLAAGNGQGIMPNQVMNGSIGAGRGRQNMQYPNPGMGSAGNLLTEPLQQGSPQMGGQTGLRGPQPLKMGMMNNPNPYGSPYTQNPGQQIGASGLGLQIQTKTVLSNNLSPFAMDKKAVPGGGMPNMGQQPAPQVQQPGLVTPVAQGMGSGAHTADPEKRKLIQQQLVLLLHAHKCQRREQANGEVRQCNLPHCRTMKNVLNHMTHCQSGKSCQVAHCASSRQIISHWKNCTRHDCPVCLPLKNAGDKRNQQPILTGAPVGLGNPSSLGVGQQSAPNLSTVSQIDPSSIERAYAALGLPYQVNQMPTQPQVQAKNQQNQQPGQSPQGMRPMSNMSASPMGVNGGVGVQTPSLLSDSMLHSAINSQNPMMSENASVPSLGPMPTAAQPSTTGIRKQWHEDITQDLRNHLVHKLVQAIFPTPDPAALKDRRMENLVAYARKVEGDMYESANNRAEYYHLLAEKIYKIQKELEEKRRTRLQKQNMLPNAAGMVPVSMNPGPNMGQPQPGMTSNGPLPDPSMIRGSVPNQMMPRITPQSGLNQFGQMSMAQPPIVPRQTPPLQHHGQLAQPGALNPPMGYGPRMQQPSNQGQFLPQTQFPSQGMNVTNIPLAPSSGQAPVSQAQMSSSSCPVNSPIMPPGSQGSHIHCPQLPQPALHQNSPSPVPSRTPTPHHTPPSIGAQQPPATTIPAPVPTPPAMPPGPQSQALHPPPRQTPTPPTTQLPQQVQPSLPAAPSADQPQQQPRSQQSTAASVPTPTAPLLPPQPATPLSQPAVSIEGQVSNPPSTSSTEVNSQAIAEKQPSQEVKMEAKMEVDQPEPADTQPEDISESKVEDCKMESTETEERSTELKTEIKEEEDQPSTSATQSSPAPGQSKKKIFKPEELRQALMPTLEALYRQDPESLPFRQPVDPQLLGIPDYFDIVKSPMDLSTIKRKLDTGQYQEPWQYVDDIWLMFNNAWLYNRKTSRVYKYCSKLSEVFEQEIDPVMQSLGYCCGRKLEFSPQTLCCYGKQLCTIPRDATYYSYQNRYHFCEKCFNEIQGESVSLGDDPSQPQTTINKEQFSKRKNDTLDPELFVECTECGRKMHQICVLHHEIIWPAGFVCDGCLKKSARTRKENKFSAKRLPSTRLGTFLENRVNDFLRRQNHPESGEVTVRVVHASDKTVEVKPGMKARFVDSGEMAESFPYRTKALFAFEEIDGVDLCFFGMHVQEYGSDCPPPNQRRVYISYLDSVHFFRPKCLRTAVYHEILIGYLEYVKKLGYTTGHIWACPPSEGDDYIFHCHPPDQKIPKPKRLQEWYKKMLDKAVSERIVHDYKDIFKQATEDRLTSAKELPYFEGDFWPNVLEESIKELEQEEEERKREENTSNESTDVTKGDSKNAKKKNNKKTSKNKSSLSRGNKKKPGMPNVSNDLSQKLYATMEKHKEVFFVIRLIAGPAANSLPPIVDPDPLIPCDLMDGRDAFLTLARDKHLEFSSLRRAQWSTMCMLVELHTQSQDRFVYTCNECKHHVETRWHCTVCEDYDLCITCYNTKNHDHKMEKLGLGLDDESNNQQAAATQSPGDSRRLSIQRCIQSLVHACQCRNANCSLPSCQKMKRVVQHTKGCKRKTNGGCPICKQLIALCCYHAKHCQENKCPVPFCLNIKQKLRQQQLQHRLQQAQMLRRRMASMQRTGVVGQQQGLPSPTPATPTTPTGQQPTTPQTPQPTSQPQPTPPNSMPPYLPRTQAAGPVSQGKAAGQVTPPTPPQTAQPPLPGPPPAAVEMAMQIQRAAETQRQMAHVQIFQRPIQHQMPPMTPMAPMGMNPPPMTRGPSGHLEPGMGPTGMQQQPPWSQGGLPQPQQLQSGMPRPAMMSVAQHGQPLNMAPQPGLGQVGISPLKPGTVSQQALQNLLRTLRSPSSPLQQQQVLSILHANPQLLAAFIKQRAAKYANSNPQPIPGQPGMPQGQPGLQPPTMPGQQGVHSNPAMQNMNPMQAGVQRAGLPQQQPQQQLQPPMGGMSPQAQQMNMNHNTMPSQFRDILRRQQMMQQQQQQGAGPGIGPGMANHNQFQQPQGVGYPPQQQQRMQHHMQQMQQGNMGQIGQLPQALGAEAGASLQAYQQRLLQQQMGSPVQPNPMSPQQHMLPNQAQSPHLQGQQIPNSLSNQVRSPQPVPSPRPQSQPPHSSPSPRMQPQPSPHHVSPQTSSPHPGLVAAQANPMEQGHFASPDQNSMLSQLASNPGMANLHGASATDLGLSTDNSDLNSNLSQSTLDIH

T1 sequence (P52947 160-283 limits assumed): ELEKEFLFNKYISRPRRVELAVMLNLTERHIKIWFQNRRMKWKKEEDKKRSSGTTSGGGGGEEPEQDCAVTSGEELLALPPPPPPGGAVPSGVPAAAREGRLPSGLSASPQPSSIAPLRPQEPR
human PDX-1/IPF-1 mutant P63fsdelC, [35S]-radiolabeled in vitro translated (human), sequence (P52945 1-62, stated change not applied): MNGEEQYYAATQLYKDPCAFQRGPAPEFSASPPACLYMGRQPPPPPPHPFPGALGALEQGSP
p300 (full-length histone acetyltransferase and nuclear receptor coactivator) (UniProt Q09472), sequence (Q09472 2-2414 limits assumed): as the sequence (Q09472 2-2414 limits assumed) above

Molecule: GST-Bridge-1 (glutathione-S-transferase fused to full-length rat Bridge-1) (from UniProt P08515 1-218)
fold stronger interaction as compared to the wild-type PDX-1 protein [1]: > 2 fold

Molecule: Gal4-Bridge-1 (Gal4 DNA-binding domain fused to full-length rat Bridge-1) (from UniProt P04386 1-147)
activation of a Gal4-CAT reporter in transfected BHK cells [2]: > 70 fold
activation of a Gal4-CAT reporter in transfected BHK cells [3]: 76 fold

B1: rat inhibitor of differentiation-3 (Id3) (yeast interaction trap control protein) (other, UniProt P41138 1-119, looked up)
chain: MKALSPVRGCYEAVCCLSERSLAIARGRGKSPSAEEPLSLLDDMNHCYSRLRELVPGVPRGTQLSQVEILQRVIDYILDLQVVLAEPAPGPPDGPHLPIQTAELTPELVISKDKRSFCH
notes: Control protein tested against the PDX-1 bait
binding result [4]: no binding

More lines, now with the values ahead:

binding result (GST-p300 (1572-2370)): no binding
B2: rat Bridge-1 (full-length, 1-222) (other)
chain: MSSEEVRHRAESSEARAAAVSDIQELMRRKEEIEAQIKANYDVLESQKGIGMNEPLVDCEGYPRADVDLYQVRTARHNIICLQNDHKALMKQVEEALHQLHARDKEKQARDMAEAREEAMNRRLASDSPALPKAFARVNSISPGSPASIAGLQVDDEIVEFGSVNTQNFQSLQNVGTVVQHSEGKPLNVMVIRRGEKHQLRLTPTRWAGKGLLGCNITPLQR
modifications: [35S]-methionine labelled in the pull-down assays
notes: In vitro translated from pcDNA3-Bridge-1 in rabbit reticulocyte lysate for the pull-downs; Expressed from the same vector in BHK and HeLa cells for the reporter assays; also called [35S]-Bridge-1; radiolabeled in vitro translated Bridge-1

binding result [5]: no binding
B3: GST-Bridge-1 (D156P) (other)
chain: B2 chain with D156P
notes: also called mutant GST-Bridge-1 fusion protein D156P; not shown: N-terminal glutathione-S-transferase carrier encoded by pGEX-5X-1, plus the short vector-derived linker
